Changes are numbered by the printed parent chain. One block for each binder: values may come before it.
Legend:
[1] = target: T1, recombinant LILRB2 ECD (human, UniProt Q8N423 22-460); assay: ELISA, LILRB2 ECD binding to HLA-G-Fc
T1 construct: also called biotinylated LILRB2 ECD
Method: (§1) HLA-G inhibition was tested by ELISA. 384-well Maxisorp plates were coated with 2 ug/mL B2M-HLA-G fused to a mouse IgG2a-Fc and the plates were blocked with 2% (w/v) BSA in PBST. […] 15 ul of the antibody dilution series (300 nM to 0.3 nM) were mixed with 30 μL of the pre-mixed LILRB/Avidin-HRP solution (final antibody concentration 100 nM to 0.1 nM) and incubated for 1 h at room temperature. After three wash cycles with PBST, 20 μL of the antibody/LILRB/Avidin-HRP solution was transferred to the plate with immobilized HLA-G and incubated for 15 min at room temperature. After three wash cycles with PBST, residual LILRB binding to HLA-G was detected by developing the ELISA with TMB substrate.

[2] = target: T2, recombinant LILRB1 ECD (human, UniProt Q8NHL6 24-461); assay: ELISA, LILRB1 ECD binding to HLA-G-Fc
T2 construct: also called biotinylated LILRB1 ECD
T2 sequence (Q8NHL6 24-461 limits assumed): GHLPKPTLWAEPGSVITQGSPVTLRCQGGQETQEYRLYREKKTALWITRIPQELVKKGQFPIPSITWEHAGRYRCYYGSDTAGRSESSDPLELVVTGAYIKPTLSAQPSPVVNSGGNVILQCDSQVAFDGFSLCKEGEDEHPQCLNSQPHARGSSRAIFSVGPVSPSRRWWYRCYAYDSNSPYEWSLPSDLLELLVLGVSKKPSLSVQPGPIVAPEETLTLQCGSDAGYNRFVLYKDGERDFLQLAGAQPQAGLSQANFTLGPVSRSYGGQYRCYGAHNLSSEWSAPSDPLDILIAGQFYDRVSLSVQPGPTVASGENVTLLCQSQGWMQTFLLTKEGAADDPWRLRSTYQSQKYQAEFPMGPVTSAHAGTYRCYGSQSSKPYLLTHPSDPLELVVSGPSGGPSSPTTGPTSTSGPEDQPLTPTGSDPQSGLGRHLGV
Method: as §1

[3] = target: T3, recombinant LILRA3 (human, UniProt Q8N6C8 24-439); assay: BLI, IgG on AHC sensor, ECD in solution
T3 construct: whole entry named; also called LILRA3 ECD; LILA3
T3 sequence (Q8N6C8 24-439 limits assumed): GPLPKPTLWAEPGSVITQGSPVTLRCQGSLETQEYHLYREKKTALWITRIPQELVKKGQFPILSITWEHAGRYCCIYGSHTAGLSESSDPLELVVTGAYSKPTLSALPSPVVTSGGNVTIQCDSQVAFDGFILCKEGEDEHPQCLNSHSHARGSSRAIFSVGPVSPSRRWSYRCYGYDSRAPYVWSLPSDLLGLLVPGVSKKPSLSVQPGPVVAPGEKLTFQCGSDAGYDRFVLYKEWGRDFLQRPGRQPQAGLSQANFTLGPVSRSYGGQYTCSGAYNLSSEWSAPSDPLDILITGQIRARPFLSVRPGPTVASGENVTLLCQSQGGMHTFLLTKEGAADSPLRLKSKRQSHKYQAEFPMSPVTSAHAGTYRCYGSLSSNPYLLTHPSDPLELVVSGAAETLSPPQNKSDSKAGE
Method: (§2) Briefly, IgGs were captured on anti-human capture (AHC) biosensors (Sartorius). […] Subsequently, the sensors were dipped into 1× Kinetics Buffer to measure the dissociation over 420 s. All sensorgrams were double referenced against 1× Kinetics Buffer and unloaded […] sensors to subtract sensor drifts and potential reference binding of the analytes. The affinities were determined by applying a 1:1 binding model.

[4] = target: T1, recombinant LILRB2 ECD; assay: BLI, IgG on AHC sensor, ECD in solution
Method: as §2

[5] = target: T2, recombinant LILRB1 ECD; assay: BLI, IgG on AHC sensor, ECD in solution
Method: as §2

[6] = target: T4, recombinant LILRA1 ECD (human, UniProt O75019 17-461); assay: BLI, IgG on AHC sensor, ECD in solution
T4 construct: whole canonical entry named; also called LILA1
T4 sequence (O75019 17-461 limits assumed): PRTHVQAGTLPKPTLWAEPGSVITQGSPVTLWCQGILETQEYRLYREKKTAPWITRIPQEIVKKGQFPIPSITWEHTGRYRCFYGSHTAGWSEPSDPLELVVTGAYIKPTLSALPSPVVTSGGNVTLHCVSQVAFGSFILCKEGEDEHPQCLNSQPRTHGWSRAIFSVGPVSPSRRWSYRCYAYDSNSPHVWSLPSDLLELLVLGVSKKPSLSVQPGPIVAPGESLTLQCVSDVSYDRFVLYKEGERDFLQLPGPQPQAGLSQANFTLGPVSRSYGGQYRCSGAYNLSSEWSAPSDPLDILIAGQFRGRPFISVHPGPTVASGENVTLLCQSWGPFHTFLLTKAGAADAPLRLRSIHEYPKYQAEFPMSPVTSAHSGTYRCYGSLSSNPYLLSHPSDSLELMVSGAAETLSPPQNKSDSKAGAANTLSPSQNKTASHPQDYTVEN
Method: as §2

T1 sequence (Q8N423 22-460 limits assumed): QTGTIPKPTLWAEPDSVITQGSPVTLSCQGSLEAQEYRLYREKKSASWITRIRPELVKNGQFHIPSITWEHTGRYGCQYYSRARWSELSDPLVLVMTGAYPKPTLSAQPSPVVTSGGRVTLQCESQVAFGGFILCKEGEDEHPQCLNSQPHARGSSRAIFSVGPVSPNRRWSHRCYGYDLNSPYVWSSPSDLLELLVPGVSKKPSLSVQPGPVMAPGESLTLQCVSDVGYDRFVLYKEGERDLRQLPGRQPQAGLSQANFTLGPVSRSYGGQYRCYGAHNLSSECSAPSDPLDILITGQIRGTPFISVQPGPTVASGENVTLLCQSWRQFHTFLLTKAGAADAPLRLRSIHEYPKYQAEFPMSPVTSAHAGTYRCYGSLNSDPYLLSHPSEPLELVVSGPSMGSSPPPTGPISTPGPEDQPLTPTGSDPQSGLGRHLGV

IC50 [1]: 4.3 nM
IC50 [2]: 5.1 nM
Kd [3]: 166 nM
Kd [4]: 4.2 nM
Kd [5]: 1.8 nM
Kd [6]: 71.3 nM
B1: A-025 (antibody, V domains shown)
VH: QVQLVQSGAEVKKPGSSVKVSCKASGYTFSKSAMSWVRQAPGQGLEWMGGIVPKFHTSVYAQKFQGRVTITADESTSTAYMELSSLRSEDTAVYYCAKGPPVGSSSWYTDWYFDLWGRGTLVTVSS
VL: SYELTQPPSVSVSPGQTASITCSGDKLGDKYASWYQQKPGQSPVLVIYQDSKRPSGIPERFSGSNSGNTATLTISGTQAEDEADYYCLSYGAHSHGVVFGGGTKLTVL
notes: tested as IgG

IC50 [1]: 4.1 nM
IC50 [2]: 2 nM
Kd [3]: 1970 nM
Kd [4]: 5.6 nM
Kd [5]: 8.7 nM
Kd [6]: 1070 nM
B2: A-048 (antibody, V domains shown)
VH: B1 VH
VL: SYELTQPPSVSVSPGQTASITCSGDKLGDKYASWYQQKPGQSPVLVIYQDSKRPSGIPERFSGSNSGNTATLTISGTQAEDEADYYCALYGGGHTVVFGGGTKLTVL
notes: tested as IgG

IC50 [1]: 3.9 nM
IC50 [2]: 3.9 nM
Kd [3]: 187 nM
Kd [4]: 1.6 nM
Kd [5]: 1.8 nM
Kd [6]: 48.3 nM
B3: A-028 (antibody, V domains shown)
VH: B1 VH with T28S, K31E, S32H, V52I, H56S, Y60F
VL: B1 VL
notes: tested as IgG

IC50 [1]: 5.6 nM
IC50 [2]: 6.5 nM
Kd [3]: 123 nM
Kd [4]: 2.7 nM
Kd [5]: 1.9 nM
Kd [6]: 29.5 nM
B4: A-029 (antibody, V domains shown)
VH: B1 VH with K31I, S32Y, V52I, K54S, H56R, S58A
VL: B1 VL
notes: tested as IgG

IC50 [1]: 8.6 nM
IC50 [2]: 8.3 nM
Kd [3]: 84.8 nM
Kd [4]: 1.4 nM
Kd [5]: 0.5 nM
Kd [6]: 23 nM
B5: A-033 (antibody, V domains shown)
VH: B1 VH with K31S, S32H, V52I, K54T, H56K, S58A, Y60F
VL: B1 VL
notes: tested as IgG

IC50 [1]: 4.2 nM
IC50 [2]: 4.1 nM
Kd [3]: 50.1 nM
Kd [4]: 0.9 nM
Kd [5]: 0.8 nM
Kd [6]: 11.6 nM
B6: A-031 (antibody, V domains shown)
VH: B1 VH with S30T, S32T, V52I, K54S, F55Y, H56Y, S58A
VL: B1 VL
notes: tested as IgG

IC50 [1]: 2.4 nM
IC50 [2]: 2 nM
Kd [3]: 1550 nM
Kd [4]: 13.7 nM
Kd [5]: 21.6 nM
Kd [6]: 1030 nM
B7: A-039 (antibody, V domains shown)
VH: B1 VH with Y27G, K31S, S32Y, M34I, V52I, K54I, H56G, S58A, V59N
VL: B2 VL
notes: tested as IgG

IC50 [1]: 5.3 nM
IC50 [2]: 6.1 nM
Kd [3]: 79.3 nM
Kd [4]: 3.9 nM
Kd [5]: 4.4 nM
Kd [6]: 120 nM
B8: A-026 (antibody, V domains shown)
VH: B1 VH with S30T, K31S, S32H, A33G, V52L, K54I, S58A, V59T
VL: B1 VL
notes: tested as IgG

IC50 [1]: 5 nM
IC50 [2]: 4.2 nM
Kd [3]: 157 nM
Kd [4]: 3.1 nM
Kd [5]: 4.9 nM
Kd [6]: 541 nM
B9: A-021 (antibody, V domains shown)
VH: QVQLVQSGAEVKKPGSSVKVSCKASGGSITSYAFAWVRQAPGQGLEWMGGIIPGFYAANYAQKFQGRVTITADESTSTAYMELSSLRSEDTAVYYCAKDLGTYSSGWPYYYGMDVWGQGTTVTVSS
VL: SYELTQPPSVSVSPGQTASITCSGDKLGDKYASWYQQKPGQSPVLVIYQDSKRPSGIPERFSGSNSGNTATLTISGTQAEDEADYYCQSTTHTSFVFGGGTKLTVL
notes: tested as IgG

IC50 [1]: 5.6 nM
IC50 [2]: 3.3 nM
Kd [3]: 678 nM
Kd [4]: 82.7 nM
Kd [5]: 16.4 nM
Kd [6]: 2690 nM
B10: A-034 (antibody, V domains shown)
VH: B9 VH with S28T, I29F, T30S, F34I, A35S, G54I, Y56G, A57T
VL: B9 VL with S89L, T90Y, T91G, S94I, F95T
notes: tested as IgG

IC50 [1]: 3.5 nM
IC50 [2]: 1.7 nM
Kd [3]: 1250 nM
Kd [4]: 30.8 nM
Kd [5]: 12.9 nM
Kd [6]: 734 nM
B11: A-035 (antibody, V domains shown)
VH: B9 VH with S28T, I29F, T30S, F34I, A35S, G54I, Y56G, A57T
VL: B9 VL with S89L, T90S, T91H, H92G, S94L, F95L
notes: tested as IgG
